# Source: patent US20120220029, “MUTANT SOX PROTEINS AND METHODS OF INDUCING PLURIPOTENCY” (Agency for Science, Technology and Research, published 2012)
# B1: order (dsDNA)
# DNA 1: GGCGCGGATGCAAATCATTGTCCGGCGGCG
# DNA 2: CGCCGCCGGACAATGATTTGCATCCGCGCC
# B2: compressed sox/oct (-1) (dsDNA)
# DNA 1: CGGCGCGGCATTGTATGCAAATCGGCGGCG
# DNA 2: CGCCGCCGATTTGCATACAATGCCGCGCCG
# B3: canonical sox/oct (0) (dsDNA)
# DNA 1: GGCGCGGCATTGTCATGCAAATCGGCGGCG
# DNA 2: CGCCGCCGATTTGCATGACAATGCCGCGCC
# B4: Nanog' compressed (-1) (dsDNA)
# DNA 1: CTGGACATTGTATGCAAAAGAA
# DNA 2: TTCTTTTGCATACAATGTCCAG
# B5: Nanog canonical (dsDNA)
# DNA 1: CATGGACATTGTAATGCAAAAGAAGCTG
# DNA 2: CAGCTTCTTTTGCATTACAATGTCCATG
# What was measured:
# Assay in all cases: EMSA
# Sox2HMG1/Oct4POU [1] = target: T1, Sox2HMG1/Oct4POU (Mus musculus, UniProt P48432;P20263 P48432:33-141,P20263:126-289); conditions: label: 5'-Cy5
# T1 sequence (P48432 33-141, chain 1 of 2): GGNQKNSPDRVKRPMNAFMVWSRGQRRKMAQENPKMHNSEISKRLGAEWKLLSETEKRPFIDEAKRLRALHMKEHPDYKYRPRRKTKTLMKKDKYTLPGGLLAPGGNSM
# T1 sequence (P20263 126-289, chain 2 of 2): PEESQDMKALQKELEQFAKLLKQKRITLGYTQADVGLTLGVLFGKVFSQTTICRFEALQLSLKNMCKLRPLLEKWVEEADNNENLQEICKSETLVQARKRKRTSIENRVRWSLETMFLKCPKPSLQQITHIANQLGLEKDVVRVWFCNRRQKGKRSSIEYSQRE
# Protocol: (§1) Electrophoretic mobility shift assays: All EMSAs were carried out using double-stranded 5′ Cy5-labeled DNA (Sigma Proligo, see Table 1) (Jauch, R., et al. J. Mol. Biol. (2008) 376(3):758-70). Binding buffer contains 20 mM Tris-HC1 pH 8.0, 50 μM ZnCl₂, 100 mM KCl, 10% glycerol, 2 mM 13-merceptoethanol, 0.1 mg/ml bovine serum albumin (BSA) and 0.1% (v/v) Igepal CA-630. 250nM dsDNA probes were mixed with analyte proteins singly or in combinations in binding buffer and incubated for 1 hr at 4° C. in dark. Samples were loaded into a pre-run 12% (w/v) IX Tris-glycine polyacrylamide gel in 1XTG (25 mM Tris, pH 8.3; 192 mM glycine) buffer to separate different species of bound and unbound probes. The fluorescence was detected using a Typhoon 9140 PhosphorImager (Amersham Biosciences).
# Profiling of Sox/Oct4 Binding to Differentially Configured Motifs: To assess the preference of Sox2 and Oct4 to physically assemble on differentially configured sox/oct motifs in vitro, electrophoretic mobility shift assays (EMSA) were conducted using purified DNA binding domains (DBDs) of Sox2 and Oct4. The heterodimerization potential of Sox2/Oct4 DBD pairs was screened on a panel of systematically modified sox/oct composite motifs (FIG. 7A). A strong cooperative interaction of Sox2 and Oct4 on the canonical element was observed (x=0, FIG. 8A, lanes 5-7). […]
# Sox17HMG = Sox17HMG (Mus musculus, UniProt Q61473 SEQ:68-136); conditions: label: 5'-Cy5
# Sequence of Sox17HMG (Q61473 68-136): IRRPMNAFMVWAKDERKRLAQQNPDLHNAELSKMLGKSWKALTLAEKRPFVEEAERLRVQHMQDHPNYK
# Oct4 POU domain [2] = target: T2, Oct4 POU domain (Mus musculus, UniProt P20263 P20263:126-289); conditions: tags: N-terminal MBP tag removed by TEV protease; label: 5'-Cy5
# T2 sequence (P20263 126-289, one chain of several): as the sequence (P20263 126-289, chain 2 of 2) above
# Protocol: as §1
# (§2) FIG. 9: (A) Differential assembly of Sox2/Oct4 and Sox17/Oct4 on the compressed and canonical elements. Proteins were added to 250nM DNA elements in the sequences indicated above the lanes. To distinguish shifts caused by Sox2 and Sox17 a N and C-terminally extended Sox2-HMG (Sox2HMG1) domain was used in these experiments. As a consequence, both, the Sox2/DNA and the Sox2/Oct4/DNA complex, migrate slower than the corresponding Sox17 complexes, allowing us to visualize a Sox2/Oct4 and Sox17/Oct4 DNA complex on the same gel. […]
# [3] = target: Sox2HMG1 (extended HMG domain) (Mus musculus, UniProt P48432 SEQ:33-141); conditions: label: 5'-Cy5
# Sequence of Sox2HMG1 (extended HMG domain) (P48432 33-141): as the sequence (P48432 33-141, chain 1 of 2) above
# Protocol: as §1, §2
# [4] = target: T3, Sox2HMGs (core HMG)/Oct4POU (Mus musculus, UniProt P48432;P20263 P48432:43-111,P20263:126-289); conditions: label: 5'-Cy5
# T3 sequence (P48432 43-111, chain 1 of 2): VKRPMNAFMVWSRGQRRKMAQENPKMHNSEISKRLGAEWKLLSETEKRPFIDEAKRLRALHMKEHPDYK
# T3 sequence (P20263 126-289, chain 2 of 2): as the sequence (P20263 126-289, chain 2 of 2) above
# Protocol: as §1
# (§3) FIG. 1: EMSAs to assess Sox7, Sox2HMGs and spacer nucleotides. To exclude artifacts that could have been caused by the length difference between the Sox2/Sox17 constructs, the differential assembly of the core Sox2HMG domain (termed Sox2HMGs) was tested. The domain spans the same range of amino acids of the Sox17 construct. The differential assembly of Sox7, another F group Sox protein with strong sequence similarities to Sox17 was also tested. Sox7 and Sox17 had comparably weak Oct4 heterodimerization on canonical elements whereas cooperative binding was observed on the compressed element. Thirdly, the spacer nucleotide of the canonical element on the remaining three possible nucleotides was varied (CATTGT(C/A/T/G)ATGCAAAT). The identity of the spacer nucleotide was found not to have a pronounced impact on the overall dimerization profile of the various Sox protein with Oct4. 50nM of Sox2HMGs, Sox7HMG and Sox17HMG were incubated with canonical elements containing different basebairs at position 7 of the Sox motif (C₁A₂T₃T₄G₅T₆(A/T/C/G)₇; A-D) and on the compressed element (E) in the absence (Lanes 1-3) or presence (Lanes 4-6) of 250 nM Oct4POU.
# Sox7HMG/Oct4POU = Sox7HMG/Oct4POU (Mus musculus, UniProt P40646;P20263 P40646:45-113,P20263:126-289); conditions: label: 5'-Cy5
# Sequence of Sox7HMG/Oct4POU (P40646 45-113, chain 1 of 2): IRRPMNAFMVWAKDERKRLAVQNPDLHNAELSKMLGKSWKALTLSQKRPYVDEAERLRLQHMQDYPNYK
# Sequence of Sox7HMG/Oct4POU (P20263 126-289, chain 2 of 2): as the sequence (P20263 126-289, chain 2 of 2) above
# Protocol: as §1, §3
# Sox2HMG1/Oct4POU [5] = target: T1, Sox2HMG1/Oct4POU; conditions: label: 5'-Cy5; remark: listed apart in the source
# Protocol: as §1
# (§4) FIG. 8: Differential assembly of Sox2HMG and Oct4POU (A) and Sox17HMG and Oct4 (E) on a series of different motif configurations. Motif configurations were systematically designed as outlined in FIG. 1A using 30bp DNA elements containing identical Sox (CATTGTC) and Oct4 (ATGCAAAT) consensus sequences flanked by GC rich sequences. To minimize binding anomalies due to cryptic elements at the periphery or within the spacer region we used idealized motifs (CATTGTC for sox and ATGCAAAT for oct) and introduced G's and C's as spacer and boundary nucleotides. Each DNA element was mixed with individual transcription factor proteins as well as with both Sox2 and Oct4 DBDs in combination (See supplementary information). 250 nM of every cy5-labelled DNA element was incubated with 50 nM Sox2HMG1/Sox17HMG and 250 nM Oct4POU proteins alone and in combination followed by PAGE to assess the formation of ternary Sox/Oct4/DNA complex. The position of the various protein DNA complexes are marked by arrows. The number of spacer basepairs is indicated above and below the gels. X=-1 denotes the compressed and X=0 the canonical elements. The co-occurrence of canonical and compressed motifs within genomic regions co-bound by Sox2 and Oct4 in mouse embryonic stem cells are depicted in (B). […]
# Sox17HMG/Oct4POU [6] = target: T4, Sox17HMG/Oct4POU (Mus musculus, UniProt Q61473;P20263 Q61473:68-136,P20263:126-289); conditions: label: 5'-Cy5
# T4 sequence (Q61473 68-136, chain 1 of 2): as the sequence (Q61473 68-136) above
# T4 sequence (P20263 126-289, chain 2 of 2): as the sequence (P20263 126-289, chain 2 of 2) above
# Protocol: as §1, §4
# Oct4 POU domain [7] = target: T2, Oct4 POU domain; conditions: tags: N-terminal MBP tag removed by TEV protease; label: 5'-Cy5; remark: listed apart in the source
# Sox2KE HMG/Oct4POU = Sox2KE HMG/Oct4POU (Mus musculus, UniProt P48432;P20263 P48432:43-111,P20263:126-289, Sox2 K95E); conditions: label: 5'-Cy5
# Sequence of Sox2KE HMG/Oct4POU (P48432 43-111, stated change not applied, chain 1 of 2): as the sequence (P48432 43-111, chain 1 of 2) above
# Sequence of Sox2KE HMG/Oct4POU (P20263 126-289, stated change not applied, chain 2 of 2): as the sequence (P20263 126-289, chain 2 of 2) above
# Protocol: (§5) 250nM dsDNA probes were mixed with analyte proteins singly or in combinations in binding buffer and incubated for 1 hr at 4° C. in dark. Samples were loaded into a pre-run 12% (w/v) IX Tris-glycine polyacrylamide gel in 1XTG (25 mM Tris, pH 8.3; 192 mM glycine) buffer to separate different species of bound and unbound probes. The fluorescence was detected using a Typhoon 9140 PhosphorImager (Amersham Biosciences).
# (§6) FIG. 10: (A) Alignment of the amino acid sequence of all mouse Sox proteins. The Sox subfamilies (Bowles, J. et al., Dev. Biol. (2000) 227: 239-55) are indicated to the right. The numbering corresponds to the Sox17 sequence. Alpha helices are marked with a red bar. The FM wedge is indicated with an orange bar below the alignment and further DNA interacting residues are marked by black closed circles. Highly conserved and similar sequences are shaded in black or gray. The position of glutamate and lysine residues distinguishing Sox17 and Sox2 is marked by an arrow. The eight amino acids in helix 3 of Sox2 that were replaced by their corresponding counterparts found in Sox17 to construct the Sox2″¹⁷ protein are colored red. (B) structural model prepared using pymol by using the structural coordinates for Sox17 and the Sox2/Oct1 on DNA. The van-der-Waals surface of the DNA derived from the Sox2/Oct1 structure is shown in light gray. Sox17 (blue) was superimposed onto Sox2 (gray). Oct1 is shown in black. Note that the linker region connecting the POU specific and the POU homedomain is not present in the NMR derived model due to structural disorder. The glutamate (Sox17) and the lysine (Sox2) that were mutated are shown as ball-and-sticks. Note that the lysine exists in two alternative conformations in the NMR model. (C)Point mutations at the Sox/Oct4 interface swap the differential assembly behavior of Sox2 and Sox17 on the canonical versus the compressed element DNA element derived from a functional sox/oct element within the Nanog enhancer were used (Rodda, D. J. et al. J Biol Chem (2005) 280:24731-7). 2 denotes Sox2HMGs, 17: Sox17HMG, 2KE: Sox2KE, 17EK: Sox17EK and 2α17 the replacement of all Sox2 residues in helix 3 that differ from the corresponding Sox17 residues into their Sox17 counterpart. Sox proteins were incubated with DNA individually and in combination with Oct4.
# Sox17HMG/Oct4POU [8] = target: T4, Sox17HMG/Oct4POU; conditions: label: 5'-Cy5; remark: listed apart in the source
# Protocol: as §5, §6
# Sox17EK HMG/Oct4POU = Sox17EK HMG/Oct4POU (Mus musculus, UniProt Q61473;P20263 Q61473:68-136,P20263:126-289, Sox17 E122K); conditions: label: 5'-Cy5
# Sequence of Sox17EK HMG/Oct4POU (Q61473 68-136 E122K, chain 1 of 2): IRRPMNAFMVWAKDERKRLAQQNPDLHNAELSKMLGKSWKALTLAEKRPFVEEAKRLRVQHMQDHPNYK
# Sequence of Sox17EK HMG/Oct4POU (P20263 126-289, stated change not applied, chain 2 of 2): as the sequence (P20263 126-289, chain 2 of 2) above
# Protocol: as §5, §6
# [9] = target: T3, Sox2HMGs (core HMG)/Oct4POU; conditions: label: 5'-Cy5; remark: listed apart in the source
# Protocol: as §5, §6
binder,measurement,setting,value
B1,binding result,Sox2HMG1/Oct4POU [1],no binding
B2,binding result,Sox17HMG,binds
same,binding result,Oct4 POU domain [2],binds
same,binding result,[3],binds
same,binding result,[4],no binding
same,binding result,Sox7HMG/Oct4POU,binds
same,binding result,Sox2HMG1/Oct4POU [5],no binding
same,binding result,Sox17HMG/Oct4POU [6],binds
B3,binding result,Oct4 POU domain [7],binds
same,binding result,Sox17HMG,binds
same,binding result,[4],binds
same,binding result,Sox2HMG1/Oct4POU [5],binds
B4,binding result,Sox2KE HMG/Oct4POU,binds
same,binding result,Sox17HMG/Oct4POU [8],binds
same,binding result,Sox17EK HMG/Oct4POU,no binding
B5,binding result,[9],binds
same,binding result,Sox17EK HMG/Oct4POU,binds
